Source: IntAct's records for PubMed 29039417

B1: BBSome complex member BBS4 (Homo sapiens), Q96RK4 (parent)
chain: MAEERVATRTQFPVSTESQKPRQKKAPEFPILEKQNWLIHLHYIRKDYEACKAVIKEQLQETQGLCEYAIYVQALIFRLEGNIQESLELFQTCAVLSPQSADNLKQVARSLFLLGKHKAAIEVYNEAAKLNQKDWEISHNLGVCYIYLKQFNKAQDQLHNALNLNRHDLTYIMLGKIHLLEGDLDKAIEVYKKAVEFSPENTELLTTLGLLYLQLGIYQKAFEHLGNALTYDPTNYKAILAAGSMMQTHGDFDVALTKYRVVACAVPESPPLWNNIGMCFFGKKKYVAAISCLKRANYLAPFDWKILYNLGLVHLTMQQYASAFHFLSAAINFQPKMGELYMLLAVALTNLEDIENAKRAYAEAVHLDKCNPLVNLNYAVLLYNQGEKKNALAQYQEMEKKVSLLKDNSSLEFDSEMVEMAQKLGAALQVGEALVWTKPVKDPKSKHQTTSTSKPASFQQPLGSNQALGQAMSSAAAYRTLPSGAGGTSQFTKPPSLPLEPEPAVESSPTETSEQIREK
partner: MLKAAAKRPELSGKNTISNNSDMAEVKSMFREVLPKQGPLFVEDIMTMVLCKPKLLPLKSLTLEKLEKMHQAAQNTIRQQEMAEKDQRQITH

Variants of: B1
Conditions: with bbip1_human BBIP1, A8MTZ0

Row | effect of a mutation on the interaction | Variant
1 | with no effect | MAEERVATRTQFPVSTESQKPRQKKAPEFPILEKQNWLIHLHYIRKDYEACKAVIKEQLQETQGLCEYAIYVQALIFRLEGNIQESLELFQTCAVLSPQSADNLKQVARSLFLLGKHKAAIEVYNEAAKLNQKDWEISHNLGVCYIYLKQFNKAQDQLHNALNLNRHDLTYIMLGKIHLLEGDLDKAIEVYKKAVEFSPENTELLTTLGLLYLQLGIYQKAFEHLGNALTYDPTNYKAILAAGSMMQTHGDFDVALTKYRVVACAVPESPPLWNNIGMCFFGKKKYVAAISCLKRANYLKPFDWKILYNLGLVHLTMQQYASAFHFLSAAINFQPKMGELYMLLAVALTNLEDIENAKRAYAEAVHLDKCNPLVNLNYAVLLYNQGEKKNALAQYQEMEKKVSLLKDNSSLEFDSEMVEMAQKLGAALQVGEALVWTKPVKDPKSKHQTTSTSKPASFQQPLGSNQALGQAMSSAAAYRTLPSGAGGTSQFTKPPSLPLEPEPAVESSPTETSEQIREK [A300K]
2 | with no effect | MAEERVATRTQFPVSTESQKPRQKKAPEFPILEKQNWLIHLHYIRKDYEACKAVIKEQLQETQGLCEYAIYVQALIFRLEGNIQESLELFQTCAVLSPQSADNLKQVARSLFLLGKHKAAIEVYNEAAKLNQKDWEISHNLGVCYIYLKQFNKAQDQLHNALNLNRHDLTYIMLGKIHLLEGDLDKAIEVYKKAVEFSPENTELLTTLGLLYLQLGIYQKAFEHLGNALTYDPTNYKAILAAGSMMQTHGDFDVALTKYRVVACAVPESPPLWNNIGMCFFGKKKYVAAISCLKRANYLEPFDWKILYNLGLVHLTMQQYASAFHFLSAAINFQPKMGELYMLLAVALTNLEDIENAKRAYAEAVHLDKCNPLVNLNYAVLLYNQGEKKNALAQYQEMEKKVSLLKDNSSLEFDSEMVEMAQKLGAALQVGEALVWTKPVKDPKSKHQTTSTSKPASFQQPLGSNQALGQAMSSAAAYRTLPSGAGGTSQFTKPPSLPLEPEPAVESSPTETSEQIREK [A300E]
3 | with no effect | MAEERVATRTQFPVSTESQKPRQKKAPEFPILEKQNWLIHLHYIRKDYEACKAVIKEQLQETQGLCEYAIYVQALIFRLEGNIQESLELFQTCAVLSPQSADNLKQVARSLFLLGKHKAAIEVYNEAAKLNQKDWEISHNLGVCYIYLKQFNKAQDQLHNALNLNRHDLTYIMLGKIHLLEGDLDKAIEVYKKAVEFSPENTELLTTLGLLYLQLGIYQKAFEHLGNALTYDPTNYKAILAAGSMMQTHGDFDVALTKYRVVACAVPESPPLWNNIGMCFFGKKKYVAAISCLKRANYEAPFDWKILYNLGLVHLTMQQYASAFHFLSAAINFQPKMGELYMLLAVALTNLEDIENAKRAYAEAVHLDKCNPLVNLNYAVLLYNQGEKKNALAQYQEMEKKVSLLKDNSSLEFDSEMVEMAQKLGAALQVGEALVWTKPVKDPKSKHQTTSTSKPASFQQPLGSNQALGQAMSSAAAYRTLPSGAGGTSQFTKPPSLPLEPEPAVESSPTETSEQIREK [L299E]
4 | with no effect | MAEERVATRTQFPVSTESQKPRQKKAPEFPILEKQNWLIHLHYIRKDYEACKAVIKEQLQETQGLCEYAIYVQALIFRLEGNIQESLELFQTCAVLSPQSADNLKQVARSLFLLGKHKAAIEVYNEAAKLNQKDWEISHNLGVCYIYLKQFNKAQDQLHNALNLNRHDLTYIMLGKIHLLEGDLDKAIEVYKKAVEFSPENTELLTTLGLLYLQLGIYQKAFEHLGNALTYDPTNYKAILAAGSMMQTHGDFDVALTKYRVVACAVPESPPLWNNIGMCFFGKKKYVAAISCLKRANYKAPFDWKILYNLGLVHLTMQQYASAFHFLSAAINFQPKMGELYMLLAVALTNLEDIENAKRAYAEAVHLDKCNPLVNLNYAVLLYNQGEKKNALAQYQEMEKKVSLLKDNSSLEFDSEMVEMAQKLGAALQVGEALVWTKPVKDPKSKHQTTSTSKPASFQQPLGSNQALGQAMSSAAAYRTLPSGAGGTSQFTKPPSLPLEPEPAVESSPTETSEQIREK [L299K]
5 | with no effect | MAEERVATRTQFPVSTESQKPRQKKAPEFPILEKQNWLIHLHYIRKDYEACKAVIKEQLQETQGLCEYAIYVQALIFRLEGNIQESLELFQTCAVLSPQSADNLKQVARSLFLLGKHKAAIEVYNEAAKLNQKDWEISHNLGVCYIYLKQFNKAQDQLHNALNLNRHDLTYIMLGKIHLLEGDLDKAIEVYKKAVEFSPENTELLTTLGLLYLQLGIYQKAFEHLGNALTYDPTNYKAILAAGSMMQTHGDFDVALTKYRVVACAVPESPPLWNNIGMCFFGKKKYVAAISCLKRANYAAPFDWKILYNLGLVHLTMQQYASAFHFLSAAINFQPKMGELYMLLAVALTNLEDIENAKRAYAEAVHLDKCNPLVNLNYAVLLYNQGEKKNALAQYQEMEKKVSLLKDNSSLEFDSEMVEMAQKLGAALQVGEALVWTKPVKDPKSKHQTTSTSKPASFQQPLGSNQALGQAMSSAAAYRTLPSGAGGTSQFTKPPSLPLEPEPAVESSPTETSEQIREK [L299A]
6 | with no effect | MAEERVATRTQFPVSTESQKPRQKKAPEFPILEKQNWLIHLHYIRKDYEACKAVIKEQLQETQGLCEYAIYVQALIFRLEGNIQESLELFQTCAVLSPQSADNLKQVARSLFLLGKHKAAIEVYNEAAKLNQKDWEISHNLGVCYIYLKQFNKAQDQLHNALNLNRHDLTYIMLGKIHLLEGDLDKAIEVYKKAVEFSPENTELLTTLGLLYLQLGIYQKAFEHLGNALTYDPTNYKAILAAGSMMQTHGDFDVALTKYRVVACAVPESPPLWNNIGMCFFGKKKYVAAISCLKRANELAPFDWKILYNLGLVHLTMQQYASAFHFLSAAINFQPKMGELYMLLAVALTNLEDIENAKRAYAEAVHLDKCNPLVNLNYAVLLYNQGEKKNALAQYQEMEKKVSLLKDNSSLEFDSEMVEMAQKLGAALQVGEALVWTKPVKDPKSKHQTTSTSKPASFQQPLGSNQALGQAMSSAAAYRTLPSGAGGTSQFTKPPSLPLEPEPAVESSPTETSEQIREK [Y298E]
7 | with no effect | MAEERVATRTQFPVSTESQKPRQKKAPEFPILEKQNWLIHLHYIRKDYEACKAVIKEQLQETQGLCEYAIYVQALIFRLEGNIQESLELFQTCAVLSPQSADNLKQVARSLFLLGKHKAAIEVYNEAAKLNQKDWEISHNLGVCYIYLKQFNKAQDQLHNALNLNRHDLTYIMLGKIHLLEGDLDKAIEVYKKAVEFSPENTELLTTLGLLYLQLGIYQKAFEHLGNALTYDPTNYKAILAAGSMMQTHGDFDVALTKYRVVACAVPESPPLWNNIGMCFFGKKKYVAAISCLKRANKLAPFDWKILYNLGLVHLTMQQYASAFHFLSAAINFQPKMGELYMLLAVALTNLEDIENAKRAYAEAVHLDKCNPLVNLNYAVLLYNQGEKKNALAQYQEMEKKVSLLKDNSSLEFDSEMVEMAQKLGAALQVGEALVWTKPVKDPKSKHQTTSTSKPASFQQPLGSNQALGQAMSSAAAYRTLPSGAGGTSQFTKPPSLPLEPEPAVESSPTETSEQIREK [Y298K]
8 | with no effect | MAEERVATRTQFPVSTESQKPRQKKAPEFPILEKQNWLIHLHYIRKDYEACKAVIKEQLQETQGLCEYAIYVQALIFRLEGNIQESLELFQTCAVLSPQSADNLKQVARSLFLLGKHKAAIEVYNEAAKLNQKDWEISHNLGVCYIYLKQFNKAQDQLHNALNLNRHDLTYIMLGKIHLLEGDLDKAIEVYKKAVEFSPENTELLTTLGLLYLQLGIYQKAFEHLGNALTYDPTNYKAILAAGSMMQTHGDFDVALTKYRVVACAVPESPPLWNNIGMCFFGKKKYVAAISCLKRANALAPFDWKILYNLGLVHLTMQQYASAFHFLSAAINFQPKMGELYMLLAVALTNLEDIENAKRAYAEAVHLDKCNPLVNLNYAVLLYNQGEKKNALAQYQEMEKKVSLLKDNSSLEFDSEMVEMAQKLGAALQVGEALVWTKPVKDPKSKHQTTSTSKPASFQQPLGSNQALGQAMSSAAAYRTLPSGAGGTSQFTKPPSLPLEPEPAVESSPTETSEQIREK [Y298A]
9 | with no effect | MAEERVATRTQFPVSTESQKPRQKKAPEFPILEKQNWLIHLHYIRKDYEACKAVIKEQLQETQGLCEYAIYVQALIFRLEGNIQESLELFQTCAVLSPQSADNLKQVARSLFLLGKHKAAIEVYNEAAKLNQKDWEISHNLGVCYIYLKQFNKAQDQLHNALNLNRHDLTYIMLGKIHLLEGDLDKAIEVYKKAVEFSPENTELLTTLGLLYLQLGIYQKAFEHLGNALTYDPTNYKAILAAGSMMQTHGDFDVALTKYRVVACAVPESPPLWNNIGMCFFGKKKYVAAISCLKRANYLAAFDWKILYNLGLVHLTMQQYASAFHFLSAAINFQPKMGELYMLLAVALTNLEDIENAKRAYAEAVHLDKCNPLVNLNYAVLLYNQGEKKNALAQYQEMEKKVSLLKDNSSLEFDSEMVEMAQKLGAALQVGEALVWTKPVKDPKSKHQTTSTSKPASFQQPLGSNQALGQAMSSAAAYRTLPSGAGGTSQFTKPPSLPLEPEPAVESSPTETSEQIREK [P301A]
10 | disrupting interaction strength | MAEERVATRTQFPVSTESQKPRQKKAPEFPILEKQNWLIHLHYIRKDYEACKAVIKEQLQETQGLCEYAIYVQALIFRLEGNIQESLELFQTCAVLSPQSADNLKQVARSLFLLGKHKAAIEVYNEAAKLNQKDWEISHNLGVCYIYLKQFNKAQDQLHNALNLNRHDLTYIMLGKIHLLEGDLDKAIEVYKKAVEFSPENTELLTTLGLLYLQLGIYQKAFEHLGNALTYDPTNYKAILAAGSMMQTHGDFDVALTKYRVVACAVPESPPLWNNIGMCFFGKKKYVAAISCLKRANYLALFDWKILYNLGLVHLTMQQYASAFHFLSAAINFQPKMGELYMLLAVALTNLEDIENAKRAYAEAVHLDKCNPLVNLNYAVLLYNQGEKKNALAQYQEMEKKVSLLKDNSSLEFDSEMVEMAQKLGAALQVGEALVWTKPVKDPKSKHQTTSTSKPASFQQPLGSNQALGQAMSSAAAYRTLPSGAGGTSQFTKPPSLPLEPEPAVESSPTETSEQIREK [P301L]
11 | with no effect | MAEERVATRTQFPVSTESQKPRQKKAPEFPILEKQNWLIHLHYIRKDYEACKAVIKEQLQETQGLCEYAIYVQALIFRLEGNIQESLELFQTCAVLSPQSADNLKQVARSLFLLGKHKAAIEVYNEAAKLNQKDWEISHNLGVCYIYLKQFNKAQDQLHNALNLNRHDLTYIMLGKIHLLEGDLDKAIEVYKKAVEFSPENTELLTTLGLLYLQLGIYQKAFEHLGNALTYDPTNYKAILAAGSMMQTHGDFDVALTKYRVVACAVPESPPLWNNIGMCFFGKKKYVAAISCLKRANYLAEFDWKILYNLGLVHLTMQQYASAFHFLSAAINFQPKMGELYMLLAVALTNLEDIENAKRAYAEAVHLDKCNPLVNLNYAVLLYNQGEKKNALAQYQEMEKKVSLLKDNSSLEFDSEMVEMAQKLGAALQVGEALVWTKPVKDPKSKHQTTSTSKPASFQQPLGSNQALGQAMSSAAAYRTLPSGAGGTSQFTKPPSLPLEPEPAVESSPTETSEQIREK [P301E]
12 | with no effect | MAEERVATRTQFPVSTESQKPRQKKAPEFPILEKQNWLIHLHYIRKDYEACKAVIKEQLQETQGLCEYAIYVQALIFRLEGNIQESLELFQTCAVLSPQSADNLKQVARSLFLLGKHKAAIEVYNEAAKLNQKDWEISHNLGVCYIYLKQFNKAQDQLHNALNLNRHDLTYIMLGKIHLLEGDLDKAIEVYKKAVEFSPENTELLTTLGLLYLQLGIYQKAFEHLGNALTYDPTNYKAILAAGSMMQTHGDFDVALTKYRVVACAVPESPPLWNNIGMCFFGKKKYVAAISCLKRANYLAKFDWKILYNLGLVHLTMQQYASAFHFLSAAINFQPKMGELYMLLAVALTNLEDIENAKRAYAEAVHLDKCNPLVNLNYAVLLYNQGEKKNALAQYQEMEKKVSLLKDNSSLEFDSEMVEMAQKLGAALQVGEALVWTKPVKDPKSKHQTTSTSKPASFQQPLGSNQALGQAMSSAAAYRTLPSGAGGTSQFTKPPSLPLEPEPAVESSPTETSEQIREK [P301K]
